Assay results from paper PMC3566775.

Biological target: Mouse SR-BI CGG mutant (positions 321-323) (mouse) (UniProt Q61009)
Test: radioligand binding

reduction in binding compared to the WT receptor: 20%
Substance: Human high density lipoprotein (HDL), labeled with 125I (complex)
